Measured values as given in paper PMC2720974, “DNA-binding by Haemophilus influenzae and Escherichia coli YbaB, members of a widely-distributed bacterial protein family” (BMC Microbiology, 2009).
Where a chain is given by its changes, count along the chain named.

T1: YbaBEc (Escherichia coli, UniProt P0A8B5 1-109)
T1 sequence: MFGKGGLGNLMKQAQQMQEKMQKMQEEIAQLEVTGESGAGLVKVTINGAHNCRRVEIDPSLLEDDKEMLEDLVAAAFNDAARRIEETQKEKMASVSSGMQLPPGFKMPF

T2: EbfC (Borrelia burgdorferi, UniProt O51418 1-99)
T2 sequence: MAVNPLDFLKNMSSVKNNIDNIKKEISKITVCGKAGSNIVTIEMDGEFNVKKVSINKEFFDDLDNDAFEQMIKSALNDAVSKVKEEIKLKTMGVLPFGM

B1: b-WT (dsDNA)
DNA 1: TTGTAATGAGTAGTGCATTTGCAATGGAGAGATTTTGGGGAGTTGTTTAAAATTACATTTGCGTTTTGTTAAAATGTAACAGCTGAATGTAACAAAATTATATATTTAAATCTTTGAAATATTGC
DNA 2: GCAATATTTCAAAGATTTAAATATATAATTTTGTTACATTCAGCTGTTACATTTTAACAAAACGCAAATGTAATTTTAAACAACTCCCCAAAATCTCTCCATTGCAAATGCACTACTCATTACAA
B2: b-C20 (dsDNA)
DNA 1: B1 DNA 1 with T75C, G76A, T77C, C93A
DNA 2: B1 DNA 2 with G33T, A49G, C50T, A51G
B3: b-C50 (dsDNA)
DNA 1: B1 DNA 1 with T75C, G76A, T77C, A92T
DNA 2: B1 DNA 2 with T34A, A49G, C50T, A51G
B4: b-C40 (dsDNA)
DNA 1: B1 DNA 1 with T75C, G76A, T77C, A91G
DNA 2: B1 DNA 2 with T35C, A49G, C50T, A51G
B5: b-C2 (dsDNA)
DNA 1: B1 DNA 1 with T75C, G76A, T77C
DNA 2: B1 DNA 2 with A49G, C50T, A51G
B6: b-C30 (dsDNA)
DNA 1: B1 DNA 1 with T75C, G76A, T77C, A94T
DNA 2: B1 DNA 2 with T32A, A49G, C50T, A51G
B7: Haemophilus influenzae YbaB (natural protein, H. influenzae, UniProt P44711 1-109, looked up)
chain: MFGKGGLGGLMKQAQQMQEKMQKMQEEIAQLEVTGESGAGLVKITINGAHNCRRIDIDPSLMEDDKEMLEDLIAAAFNDAVRRAEELQKEKMASVTAGMPLPPGMKFPF
notes: Purified on a His-Trap column; removal of the tag is not mentioned; also called YbaBHi; HI0442; source: E. coli Rosetta pLysS, purified (His-Trap HP)

Columns and labels:
YbaBEc [1] = target: T1, YbaBEc; experiment: EMSA; first step, n=1.93; EMSA: 100 pM biotin-DNA, 50 mM Tris-HCl pH 7.5, 1 mM DTT, protease inhibitor 8 ul/ml, phosphatase inhibitor 2 ul/ml, 10% glycerol, no added salt stated, 20 min, room temperature; conditions: protein: recombinant; tags: pET200-TOPO vector tag, His-Trap purified; chain copies: 2; label: 5' biotin on strand 1; blunt
YbaBEc [2] = target: T1, YbaBEc; experiment: EMSA; first step, apparent monomer-equivalent; EMSA: 100 pM biotin-DNA, 50 mM Tris-HCl pH 7.5, 1 mM DTT, protease inhibitor 8 ul/ml, phosphatase inhibitor 2 ul/ml, 10% glycerol, no added salt stated, 20 min, room temperature; conditions: protein: recombinant; tags: pET200-TOPO vector tag, His-Trap purified; chain copies: 2; label: 5' biotin on strand 1; blunt
YbaBHi [3] = target: T3, YbaBHi (Haemophilus influenzae, UniProt P44711 1-109); experiment: as above; conditions: protein: recombinant; tags: pET15b vector tag, His-Trap purified; chain copies: 2; label: 5' biotin on strand 1; blunt
YbaBHi [4] = target: T3, YbaBHi; experiment: EMSA; first step, n=2.09; EMSA: 100 pM biotin-DNA, 50 mM Tris-HCl pH 7.5, 1 mM DTT, protease inhibitor 8 ul/ml, phosphatase inhibitor 2 ul/ml, 10% glycerol, no added salt stated, 20 min, room temperature; conditions: protein: recombinant; tags: pET15b vector tag, His-Trap purified; chain copies: 2; label: 5' biotin on strand 1; blunt
YbaBEc [5] = target: T1, YbaBEc; experiment: EMSA; no detectable effect of mutation; EMSA: 100 pM biotin-DNA, 50 mM Tris-HCl pH 7.5, 1 mM DTT, protease inhibitor 8 ul/ml, phosphatase inhibitor 2 ul/ml, 10% glycerol, no added salt stated, 20 min, room temperature; conditions: protein: recombinant; tags: pET200-TOPO vector tag, His-Trap purified; chain copies: 2; label: 5' biotin on strand 1; blunt
YbaBHi [6] = target: T3, YbaBHi; experiment: as above; conditions: protein: recombinant; tags: pET15b vector tag, His-Trap purified; chain copies: 2; label: 5' biotin on strand 1; blunt
EbfC = target: T2, EbfC; experiment: EMSA; specific plus nonspecific complex; EMSA: 100 pM biotin-DNA, 50 mM Tris-HCl pH 7.5, 1 mM DTT, protease inhibitor 8 ul/ml, phosphatase inhibitor 2 ul/ml, 10% glycerol, no added salt stated, 20 min, room temperature; conditions: protein: recombinant; tags: His-Trap purified (His tag implied); chain copies: 2; label: 5' biotin on strand 1; blunt
YbaBEc [7] = target: T1, YbaBEc; experiment: EMSA; protein at half its Kd; EMSA: 100 pM biotin-DNA, 50 mM Tris-HCl pH 7.5, 1 mM DTT, protease inhibitor 8 ul/ml, phosphatase inhibitor 2 ul/ml, 10% glycerol, no added salt stated, 20 min, room temperature; conditions: protein: recombinant; tags: pET200-TOPO vector tag, His-Trap purified; chain copies: 2; label: 5' biotin on strand 1; blunt
YbaBHi [8] = target: T3, YbaBHi; experiment: as above; conditions: protein: recombinant; tags: pET15b vector tag, His-Trap purified; chain copies: 2; label: 5' biotin on strand 1; blunt
[9] = target: the molecule itself; experiment: SEC; data not shown; Superdex 75 10/300 GL, 200 mM NaCl, 50 mM Tris-HCl pH 7.5, 1% glycerol; 200 ul of about 0.2 mg/ml YbaBHi; mass from a calibration curve of standards

Row | Binder | binding result (YbaBEc [5]) | binding result (YbaBHi [6]) | further results
1 | B1 |  |  | Ka (YbaBEc [1]): 1.7e+14 M-2; Kd (YbaBEc [2]): 77 nM; Kd (YbaBHi [3]): 240 nM; Ka (YbaBHi [4]): 1.7e+13 M-2
2 | B2 | binds | binds | 
3 | B3 | binds | binds | 
4 | B4 | binds | binds | 
5 | B5 |  |  | binding result (EbfC): binds; binding result (YbaBEc [7]): binds; binding result (YbaBHi [8]): binds
6 | B6 | binds | binds | 
7 | B7 |  |  | stoichiometry N [9]: 2
